The target of assay [1] is GLP-2R (GLP-2 receptor) on GLP-2R/Luc-CHO cells. As to the kind of experiment: cell-based or functional assay.
A further assay deals with GHR on Ba/f3-GHR cells. The assay can be described thus: cell-based or functional assay.

For “GLP-2 (Hangzhou Chinese Peptide Biochemical Co., Ltd., Cat. No: GLUC-002A)”, the in vitro cytological activity, EC50 (luciferase reporter, GLP-2R/Luc-CHO cells) in assay [1] was determined as 0.0052 µM. “hGH (human auxin) (from UniProt P01241 27-217) (ligand)”: the In vitro cytological activity, EC50 (Ba/f3-GHR cells, MTT) with GHR on Ba/f3-GHR cells was determined as 0.54 nM.

The record behind these values is patent publication US20220119448A1.
